Test results published in patent US12630600B2 (MEDIMMUNE LIMITED, priority 2022, dated 2026).
Starred links: 1 amine or outer side, 2 acyl side, 3 side chain; linkers in the order of their positions; H or OH if unused. Non-standard residues stand in square brackets, D forms with d. Groups on a side chain read outwards from the residue. No end group written: not given here. *: point of attachment. C20 diacid = O=C(O)CCCCCCCCCCCCCCCCCCC(=O)*; C18 diacid = O=C(O)CCCCCCCCCCCCCCCCC(=O)*; γGlu = O=C(O)[C@H](CCC(=O)[*:2])N[*:1]; αMeF = C[C@](N)(Cc1ccccc1)C(=O)O; AEEA = NCCOCCOCC(=O)O; Aib = CC(C)(N)C(=O)O

B1: Peptide 443 (peptide)
peptide: H[Aib]QGTFTSDVSK[αMeF]LDKK([AEEA-AEEA-γGlu-C18 diacid])RARDFVRWLL[Aib]E-NH2
modifications: N-terminus assumed
SMILES: CC(C)C[C@H](NC(=O)[C@H](Cc1c[nH]c2ccccc12)NC(=O)[C@H](CCCNC(=N)N)NC(=O)[C@@H](NC(=O)[C@H](Cc1ccccc1)NC(=O)[C@H](CC(=O)O)NC(=O)[C@H](CCCNC(=N)N)NC(=O)[C@H](C)NC(=O)[C@H](CCCNC(=N)N)NC(=O)[C@H](CCCCNC(=O)COCCOCCNC(=O)COCCOCCNC(=O)CC[C@H](NC(=O)CCCCCCCCCCCCCCCCC(=O)O)C(=O)O)NC(=O)[C@H](CCCCN)NC(=O)[C@H](CC(=O)O)NC(=O)[C@H](CC(C)C)NC(=O)[C@](C)(Cc1ccccc1)NC(=O)[C@H](CCCCN)NC(=O)[C@H](CO)NC(=O)[C@@H](NC(=O)[C@H](CC(=O)O)NC(=O)[C@H](CO)NC(=O)[C@@H](NC(=O)[C@H](Cc1ccccc1)NC(=O)[C@@H](NC(=O)CNC(=O)[C@H](CCC(N)=O)NC(=O)C(C)(C)NC(=O)[C@@H](N)Cc1c[nH]cn1)[C@@H](C)O)[C@@H](C)O)C(C)C)C(C)C)C(=O)N[C@@H](CC(C)C)C(=O)NC(C)(C)C(=O)N[C@@H](CCC(=O)O)C(N)=O
B2: Peptide 448 (peptide)
peptide: H[Aib]QGTFTSDVSK[αMeF]LDKK([AEEA-AEEA-γGlu-γGlu-C18 diacid])RARDFVRWLL[Aib]E-OH
modifications: N-terminus assumed
SMILES: CC(C)C[C@H](NC(=O)[C@H](Cc1c[nH]c2ccccc12)NC(=O)[C@H](CCCNC(=N)N)NC(=O)[C@@H](NC(=O)[C@H](Cc1ccccc1)NC(=O)[C@H](CC(=O)O)NC(=O)[C@H](CCCNC(=N)N)NC(=O)[C@H](C)NC(=O)[C@H](CCCNC(=N)N)NC(=O)[C@H](CCCCNC(=O)COCCOCCNC(=O)COCCOCCNC(=O)CC[C@H](NC(=O)CC[C@H](NC(=O)CCCCCCCCCCCCCCCCC(=O)O)C(=O)O)C(=O)O)NC(=O)[C@H](CCCCN)NC(=O)[C@H](CC(=O)O)NC(=O)[C@H](CC(C)C)NC(=O)[C@](C)(Cc1ccccc1)NC(=O)[C@H](CCCCN)NC(=O)[C@H](CO)NC(=O)[C@@H](NC(=O)[C@H](CC(=O)O)NC(=O)[C@H](CO)NC(=O)[C@@H](NC(=O)[C@H](Cc1ccccc1)NC(=O)[C@@H](NC(=O)CNC(=O)[C@H](CCC(N)=O)NC(=O)C(C)(C)NC(=O)[C@@H](N)Cc1c[nH]cn1)[C@@H](C)O)[C@@H](C)O)C(C)C)C(C)C)C(=O)N[C@@H](CC(C)C)C(=O)NC(C)(C)C(=O)N[C@@H](CCC(=O)O)C(=O)O
B3: Peptide 449 (peptide)
peptide: H[Aib]QGTFTSDVSK[αMeF]LDTK([AEEA-AEEA-γGlu-γGlu-C20 diacid])RARDFVQWLLE[Aib]G-OH
modifications: N-terminus assumed
SMILES: CC(C)C[C@H](NC(=O)[C@H](Cc1c[nH]c2ccccc12)NC(=O)[C@H](CCC(N)=O)NC(=O)[C@@H](NC(=O)[C@H](Cc1ccccc1)NC(=O)[C@H](CC(=O)O)NC(=O)[C@H](CCCNC(=N)N)NC(=O)[C@H](C)NC(=O)[C@H](CCCNC(=N)N)NC(=O)[C@H](CCCCNC(=O)COCCOCCNC(=O)COCCOCCNC(=O)CC[C@H](NC(=O)CC[C@H](NC(=O)CCCCCCCCCCCCCCCCCCC(=O)O)C(=O)O)C(=O)O)NC(=O)[C@@H](NC(=O)[C@H](CC(=O)O)NC(=O)[C@H](CC(C)C)NC(=O)[C@](C)(Cc1ccccc1)NC(=O)[C@H](CCCCN)NC(=O)[C@H](CO)NC(=O)[C@@H](NC(=O)[C@H](CC(=O)O)NC(=O)[C@H](CO)NC(=O)[C@@H](NC(=O)[C@H](Cc1ccccc1)NC(=O)[C@@H](NC(=O)CNC(=O)[C@H](CCC(N)=O)NC(=O)C(C)(C)NC(=O)[C@@H](N)Cc1c[nH]cn1)[C@@H](C)O)[C@@H](C)O)C(C)C)[C@@H](C)O)C(C)C)C(=O)N[C@@H](CC(C)C)C(=O)N[C@@H](CCC(=O)O)C(=O)NC(C)(C)C(=O)NCC(=O)O
B4: Peptide 446 (peptide)
peptide: H[Aib]QGTFTSDVSK[αMeF]LDRK([AEEA-AEEA-γGlu-γGlu-C18 diacid])RAQDFVRWLV[Aib]E-NH2
modifications: N-terminus assumed
SMILES: CC(C)C[C@H](NC(=O)[C@H](Cc1c[nH]c2ccccc12)NC(=O)[C@H](CCCNC(=N)N)NC(=O)[C@@H](NC(=O)[C@H](Cc1ccccc1)NC(=O)[C@H](CC(=O)O)NC(=O)[C@H](CCC(N)=O)NC(=O)[C@H](C)NC(=O)[C@H](CCCNC(=N)N)NC(=O)[C@H](CCCCNC(=O)COCCOCCNC(=O)COCCOCCNC(=O)CC[C@H](NC(=O)CC[C@H](NC(=O)CCCCCCCCCCCCCCCCC(=O)O)C(=O)O)C(=O)O)NC(=O)[C@H](CCCNC(=N)N)NC(=O)[C@H](CC(=O)O)NC(=O)[C@H](CC(C)C)NC(=O)[C@](C)(Cc1ccccc1)NC(=O)[C@H](CCCCN)NC(=O)[C@H](CO)NC(=O)[C@@H](NC(=O)[C@H](CC(=O)O)NC(=O)[C@H](CO)NC(=O)[C@@H](NC(=O)[C@H](Cc1ccccc1)NC(=O)[C@@H](NC(=O)CNC(=O)[C@H](CCC(N)=O)NC(=O)C(C)(C)NC(=O)[C@@H](N)Cc1c[nH]cn1)[C@@H](C)O)[C@@H](C)O)C(C)C)C(C)C)C(=O)N[C@H](C(=O)NC(C)(C)C(=O)N[C@@H](CCC(=O)O)C(N)=O)C(C)C
B5: Peptide 441 (peptide)
peptide: H[Aib]QGTFTSDVSK[αMeF]LDKK([AEEA-AEEA-γGlu-C20 diacid])RAQDFVRWLL[Aib]E-NH2
modifications: N-terminus assumed
SMILES: CC(C)C[C@H](NC(=O)[C@H](Cc1c[nH]c2ccccc12)NC(=O)[C@H](CCCNC(=N)N)NC(=O)[C@@H](NC(=O)[C@H](Cc1ccccc1)NC(=O)[C@H](CC(=O)O)NC(=O)[C@H](CCC(N)=O)NC(=O)[C@H](C)NC(=O)[C@H](CCCNC(=N)N)NC(=O)[C@H](CCCCNC(=O)COCCOCCNC(=O)COCCOCCNC(=O)CC[C@H](NC(=O)CCCCCCCCCCCCCCCCCCC(=O)O)C(=O)O)NC(=O)[C@H](CCCCN)NC(=O)[C@H](CC(=O)O)NC(=O)[C@H](CC(C)C)NC(=O)[C@](C)(Cc1ccccc1)NC(=O)[C@H](CCCCN)NC(=O)[C@H](CO)NC(=O)[C@@H](NC(=O)[C@H](CC(=O)O)NC(=O)[C@H](CO)NC(=O)[C@@H](NC(=O)[C@H](Cc1ccccc1)NC(=O)[C@@H](NC(=O)CNC(=O)[C@H](CCC(N)=O)NC(=O)C(C)(C)NC(=O)[C@@H](N)Cc1c[nH]cn1)[C@@H](C)O)[C@@H](C)O)C(C)C)C(C)C)C(=O)N[C@@H](CC(C)C)C(=O)NC(C)(C)C(=O)N[C@@H](CCC(=O)O)C(N)=O
B6: Peptide 442 (peptide)
peptide: H[Aib]QGTFTSDVSK[αMeF]LDKK([AEEA-AEEA-γGlu-C18 diacid])RAQDFVRWLLE[Aib]G-NH2
modifications: N-terminus assumed
SMILES: CC(C)C[C@H](NC(=O)[C@H](Cc1c[nH]c2ccccc12)NC(=O)[C@H](CCCNC(=N)N)NC(=O)[C@@H](NC(=O)[C@H](Cc1ccccc1)NC(=O)[C@H](CC(=O)O)NC(=O)[C@H](CCC(N)=O)NC(=O)[C@H](C)NC(=O)[C@H](CCCNC(=N)N)NC(=O)[C@H](CCCCNC(=O)COCCOCCNC(=O)COCCOCCNC(=O)CC[C@H](NC(=O)CCCCCCCCCCCCCCCCC(=O)O)C(=O)O)NC(=O)[C@H](CCCCN)NC(=O)[C@H](CC(=O)O)NC(=O)[C@H](CC(C)C)NC(=O)[C@](C)(Cc1ccccc1)NC(=O)[C@H](CCCCN)NC(=O)[C@H](CO)NC(=O)[C@@H](NC(=O)[C@H](CC(=O)O)NC(=O)[C@H](CO)NC(=O)[C@@H](NC(=O)[C@H](Cc1ccccc1)NC(=O)[C@@H](NC(=O)CNC(=O)[C@H](CCC(N)=O)NC(=O)C(C)(C)NC(=O)[C@@H](N)Cc1c[nH]cn1)[C@@H](C)O)[C@@H](C)O)C(C)C)C(C)C)C(=O)N[C@@H](CC(C)C)C(=O)N[C@@H](CCC(=O)O)C(=O)NC(C)(C)C(=O)NCC(N)=O
B7: Peptide 447 (peptide)
peptide: H[Aib]QGTFTSDVSK[αMeF]LDRK([AEEA-AEEA-γGlu-γGlu-C20 diacid])RAQDFVRWLV[Aib]E-NH2
modifications: N-terminus assumed
SMILES: CC(C)C[C@H](NC(=O)[C@H](Cc1c[nH]c2ccccc12)NC(=O)[C@H](CCCNC(=N)N)NC(=O)[C@@H](NC(=O)[C@H](Cc1ccccc1)NC(=O)[C@H](CC(=O)O)NC(=O)[C@H](CCC(N)=O)NC(=O)[C@H](C)NC(=O)[C@H](CCCNC(=N)N)NC(=O)[C@H](CCCCNC(=O)COCCOCCNC(=O)COCCOCCNC(=O)CC[C@H](NC(=O)CC[C@H](NC(=O)CCCCCCCCCCCCCCCCCCC(=O)O)C(=O)O)C(=O)O)NC(=O)[C@H](CCCNC(=N)N)NC(=O)[C@H](CC(=O)O)NC(=O)[C@H](CC(C)C)NC(=O)[C@](C)(Cc1ccccc1)NC(=O)[C@H](CCCCN)NC(=O)[C@H](CO)NC(=O)[C@@H](NC(=O)[C@H](CC(=O)O)NC(=O)[C@H](CO)NC(=O)[C@@H](NC(=O)[C@H](Cc1ccccc1)NC(=O)[C@@H](NC(=O)CNC(=O)[C@H](CCC(N)=O)NC(=O)C(C)(C)NC(=O)[C@@H](N)Cc1c[nH]cn1)[C@@H](C)O)[C@@H](C)O)C(C)C)C(C)C)C(=O)N[C@H](C(=O)NC(C)(C)C(=O)N[C@@H](CCC(=O)O)C(N)=O)C(C)C

These binders were tested against human glucagon receptor (human, UniProt P47871) (assay: cell-based or functional assay).
For B1, the “cAMP production EC50” value was 0.0224 nM.
B2 was tested, and the “cAMP production EC50” value was 0.029 nM.
For H[Aib]QGTFTSDVSK[αMeF]LETK([AEEA-AEEA-γGlu-C18 diacid])RARDFVQWLLE[Aib]G-OH [Peptide 445], the “cAMP production EC50” value was 0.684 nM.
B3 was tested, and the “cAMP production EC50” value was 0.242 nM.
In the case of B4, the “cAMP production EC50” value is reported as 0.366 nM.
B5 was tested, and the “cAMP production EC50” value was 0.0728 nM.
H[Aib]QGTFTSDVSK[αMeF]LETK([AEEA-AEEA-γGlu-C18 diacid])RARDFVQWLLE[Aib]G-OH (not fully specified) [Peptide 444] was tested, and the “cAMP production EC50” value was 1.76 nM.
With B6 the “cAMP production EC50” value was 0.0358 nM.
For B7, the “cAMP production EC50” value was 0.667 nM.

The binders below were run against human GLP-1 receptor (human, UniProt P43220) (assay: cell-based or functional assay).
With B1 the “cAMP production EC50” value was 0.0206 nM.
B2 was tested, and the “cAMP production EC50” value was 0.0531 nM.
In the case of H[Aib]QGTFTSDVSK[αMeF]LETK([AEEA-AEEA-γGlu-C18 diacid])RARDFVQWLLE[Aib]G-OH [Peptide 445], the “cAMP production EC50” value is reported as 0.033 nM.
B3 was tested, and the “cAMP production EC50” value was 0.207 nM.
In the case of B4, the “cAMP production EC50” value is reported as 0.0329 nM.
With B5 the “cAMP production EC50” value was 0.0627 nM.
H[Aib]QGTFTSDVSK[αMeF]LETK([AEEA-AEEA-γGlu-C18 diacid])RARDFVQWLLE[Aib]G-OH (not fully specified) [Peptide 444] was tested, and the “cAMP production EC50” value was 0.247 nM.
B6 was tested, and the “cAMP production EC50” value was 0.0191 nM.
With B7 the “cAMP production EC50” value was 0.17 nM.
